Measured values reported in article PMC10500007.

T1: human integrin αvβ6 (soluble, construct not stated), P06756;P18564
T1 chain 1: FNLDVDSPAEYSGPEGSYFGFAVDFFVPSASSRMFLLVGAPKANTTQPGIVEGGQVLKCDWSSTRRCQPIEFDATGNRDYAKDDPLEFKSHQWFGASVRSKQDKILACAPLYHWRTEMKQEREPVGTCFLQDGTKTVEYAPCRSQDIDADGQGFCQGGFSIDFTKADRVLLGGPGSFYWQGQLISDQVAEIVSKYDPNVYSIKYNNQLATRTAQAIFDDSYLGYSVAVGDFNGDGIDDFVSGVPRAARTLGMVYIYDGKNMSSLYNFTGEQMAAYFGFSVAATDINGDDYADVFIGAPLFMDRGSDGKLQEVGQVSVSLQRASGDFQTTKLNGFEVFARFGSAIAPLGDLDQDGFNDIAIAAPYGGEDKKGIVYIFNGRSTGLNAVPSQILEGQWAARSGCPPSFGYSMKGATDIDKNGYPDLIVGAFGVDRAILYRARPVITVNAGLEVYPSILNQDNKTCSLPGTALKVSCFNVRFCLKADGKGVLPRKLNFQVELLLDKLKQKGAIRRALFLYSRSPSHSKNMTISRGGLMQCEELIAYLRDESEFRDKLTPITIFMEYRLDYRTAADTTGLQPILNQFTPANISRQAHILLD
T1 chain 2: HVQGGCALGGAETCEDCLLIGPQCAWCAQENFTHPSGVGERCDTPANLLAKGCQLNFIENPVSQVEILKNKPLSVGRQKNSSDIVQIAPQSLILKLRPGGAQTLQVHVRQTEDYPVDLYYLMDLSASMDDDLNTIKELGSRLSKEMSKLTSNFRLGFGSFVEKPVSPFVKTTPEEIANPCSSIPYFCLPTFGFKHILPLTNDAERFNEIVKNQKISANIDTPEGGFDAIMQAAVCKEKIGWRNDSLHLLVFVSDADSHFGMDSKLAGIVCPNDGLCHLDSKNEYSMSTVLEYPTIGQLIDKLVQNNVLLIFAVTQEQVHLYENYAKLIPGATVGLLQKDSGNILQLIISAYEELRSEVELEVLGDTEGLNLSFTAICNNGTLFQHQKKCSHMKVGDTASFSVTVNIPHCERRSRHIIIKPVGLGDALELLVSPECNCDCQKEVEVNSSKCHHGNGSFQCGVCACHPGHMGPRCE

T2: human integrin αvβ8 (soluble, construct not stated), P06756;P26012
T2 chain 1: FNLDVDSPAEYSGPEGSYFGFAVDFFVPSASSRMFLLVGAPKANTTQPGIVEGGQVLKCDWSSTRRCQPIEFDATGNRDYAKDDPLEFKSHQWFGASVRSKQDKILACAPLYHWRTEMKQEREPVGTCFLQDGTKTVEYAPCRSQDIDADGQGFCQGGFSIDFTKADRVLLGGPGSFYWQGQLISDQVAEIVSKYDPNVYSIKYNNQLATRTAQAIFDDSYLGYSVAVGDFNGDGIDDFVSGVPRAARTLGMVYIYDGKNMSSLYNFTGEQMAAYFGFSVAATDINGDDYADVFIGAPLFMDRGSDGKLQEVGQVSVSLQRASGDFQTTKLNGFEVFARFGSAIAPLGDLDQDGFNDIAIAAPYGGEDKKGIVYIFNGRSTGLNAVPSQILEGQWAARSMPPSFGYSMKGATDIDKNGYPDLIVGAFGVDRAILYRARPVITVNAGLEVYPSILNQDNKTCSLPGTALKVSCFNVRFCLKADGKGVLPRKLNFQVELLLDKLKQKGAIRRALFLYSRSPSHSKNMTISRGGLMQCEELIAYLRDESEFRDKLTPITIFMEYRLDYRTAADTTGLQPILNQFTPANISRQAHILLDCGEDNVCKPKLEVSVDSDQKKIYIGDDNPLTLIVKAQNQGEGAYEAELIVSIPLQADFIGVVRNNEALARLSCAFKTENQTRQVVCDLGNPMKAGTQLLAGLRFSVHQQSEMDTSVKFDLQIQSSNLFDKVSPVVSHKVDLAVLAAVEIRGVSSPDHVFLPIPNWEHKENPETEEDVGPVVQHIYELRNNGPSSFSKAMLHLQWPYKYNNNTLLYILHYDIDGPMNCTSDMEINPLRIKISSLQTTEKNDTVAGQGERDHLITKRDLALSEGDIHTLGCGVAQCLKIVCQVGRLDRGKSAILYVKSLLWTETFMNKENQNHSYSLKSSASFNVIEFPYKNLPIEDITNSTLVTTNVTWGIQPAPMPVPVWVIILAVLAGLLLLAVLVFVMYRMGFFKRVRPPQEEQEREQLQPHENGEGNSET
T2 chain 2: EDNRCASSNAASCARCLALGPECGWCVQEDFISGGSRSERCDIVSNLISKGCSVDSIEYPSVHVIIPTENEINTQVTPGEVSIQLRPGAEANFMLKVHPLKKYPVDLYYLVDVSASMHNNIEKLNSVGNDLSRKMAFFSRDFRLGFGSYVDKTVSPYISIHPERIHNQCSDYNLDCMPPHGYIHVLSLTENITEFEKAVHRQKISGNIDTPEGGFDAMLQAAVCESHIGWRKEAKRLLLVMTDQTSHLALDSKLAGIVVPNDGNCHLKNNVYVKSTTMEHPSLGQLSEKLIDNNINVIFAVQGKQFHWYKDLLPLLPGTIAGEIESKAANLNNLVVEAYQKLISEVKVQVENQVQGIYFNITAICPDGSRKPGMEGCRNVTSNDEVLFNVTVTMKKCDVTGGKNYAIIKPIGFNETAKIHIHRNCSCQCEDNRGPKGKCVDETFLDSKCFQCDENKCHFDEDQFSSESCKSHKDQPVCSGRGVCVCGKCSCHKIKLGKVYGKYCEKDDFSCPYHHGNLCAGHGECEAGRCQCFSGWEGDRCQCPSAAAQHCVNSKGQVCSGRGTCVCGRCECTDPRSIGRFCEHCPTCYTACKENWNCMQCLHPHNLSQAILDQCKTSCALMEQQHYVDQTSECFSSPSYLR


What was measured:
[1] = target: T1, human integrin αvβ6 (soluble, construct …); experiment: BLI; conditions: chain shown with the change;; parent: > 1000 nM
[2] = target: T2, human integrin αvβ8 (soluble, construct …); experiment: BLI; conditions: chain shown with the change;; parent: 1.9 nM

Row | Binder | Kd [1] | Kd [2]
1 | B8_BP_dslf M13L; Y16I (protein) TKCVVRFNFRGDLAVIALKAVKDHLKKEGPHWNITTHNDDEVYLVVRGIHESDAKRIAKWVESTIPGISVETQCD | 0.7 nM | 0.3 nM
2 | B8_BP_dslf Y16I (protein) TKCVVRFNFRGDMAVIALKAVKDHLKKEGPHWNITTHNDDEVYLVVRGIHESDAKRIAKWVESTIPGISVETQCD | – | 0.2 nM
3 | B8_BP_dslf M13L; V15T; Y16I (protein) TKCVVRFNFRGDLATIALKAVKDHLKKEGPHWNITTHNDDEVYLVVRGIHESDAKRIAKWVESTIPGISVETQCD | – | 0.3 nM
4 | B8_BP_dslf V15T; Y16I (protein) TKCVVRFNFRGDMATIALKAVKDHLKKEGPHWNITTHNDDEVYLVVRGIHESDAKRIAKWVESTIPGISVETQCD | – | 0.1 nM
